Assay [1] concerns the target T1, human CD137 on transfected CHO cells (CHO-huCD137) (human).
T1 construct: domain: transmembrane and intracellular part
As to the kind of experiment: flow cytometry on CHO-huCD137 cells; 95% confidence interval of the EC50. The protocol: (§1) Binding and EC50 was determined using flow cytometric of CHO cells transfected with human CD137, cynomolgus CD137 or empty vector. The extracellular part of human or cynomolgus CD137 was fused to the transmembrane and intracellular part of human CD40 and cloned into pcDNA3.1. The vector was subsequently stably transfected into CHO cells. […] CD137-transfected and empty vector-transfected cells were incubated with CD137 antibodies for at least 1 h at 4° C. to saturate the binding. In order to minimize antibody internalization, 0.05% sodium azide was used in the incubation buffer and all work was performed on ice. The CD137 antibodies were detected using PE-conjugated anti-hIgG antibody (109-115-098, Jackson Immunoresearch laboratories), incubated for 30 min at 4° C. Directly after staining the cells were fixed with a paraformaldehyde solution (10× concentrate BD CellFIX, BD biosciences #340181). Cells were analyzed by flow cytometry using FACSVerse (BD Biosciences). The median fluorescence intensity (MFI) for each sample was determined and the dose response data was analysed using Graph Pad Prism.
(§2) MFI data was normalized for each antibody, where 0% is defined as the lowest value and 100% is the highest value in the dose titration for each antibody.

Assay [2] addresses T2, 1555: Human CD137 with mouse domains 1 and 4B and region of unknown function (aa 24-46 and aa 139-186) (human; mouse, UniProt P20334 24-45; P20334 139-185).
T2 construct: Human/mouse chimera transiently expressed on FreeStyle 293-F cells
Briefly: flow cytometry on transfected 293-F cells, human/mouse CD137 chimera. The protocol:
(§3) The ability of each antibody to bind to a panel of human/mouse CD137 chimeras expressed on the surface of transfected cells was analyzed by flow cytometry.
(§4) The chimeras were designed by exchanging domains or modules of the human CD137 with the corresponding mouse domain. Genes of CD137 human/mouse chimeras were synthesized (GenScript) and constructs cloned into pcDNA3.1 vector (Invitrogen) and transiently transfected into FreeStyle 293-F cells (Invitrogen). The transfected cells were incubated with CD137 antibodies and control antibodies, followed by incubation with anti-human IgG-PE (Jackson Immunoresearch) for detection and analyzed with FACS Verse (BD Biosciences). Binding to the different chimeric constructs was calculated as relative MFI compared to the binding of the isotype control, followed by normalization to the full-length human CD137 construct to minimize the effect of affinity differences between individual antibodies.

Assay [3] concerns the target T3, 1551: Human CD137 with mouse domains 2A, 2B and 3A (aa 47-96) (human; mouse, UniProt P20334 46-95).
T3 construct: domain: domains 2A, 2B and 3A (aa 47-96); Human/mouse chimera transiently expressed on FreeStyle 293-F cells
Described as above. As for the experimental part:
as §3, §4

Assay [4] deals with T4, 1552: Human CD137 with mouse domains 2B, 3A and 3B (aa 64-118) (human; mouse, UniProt P20334 63-117).
T4 construct: Human/mouse chimera transiently expressed on FreeStyle 293-F cells
T4 sequence (P20334 other isoform, or with tags, fused parts or gaps limits assumed): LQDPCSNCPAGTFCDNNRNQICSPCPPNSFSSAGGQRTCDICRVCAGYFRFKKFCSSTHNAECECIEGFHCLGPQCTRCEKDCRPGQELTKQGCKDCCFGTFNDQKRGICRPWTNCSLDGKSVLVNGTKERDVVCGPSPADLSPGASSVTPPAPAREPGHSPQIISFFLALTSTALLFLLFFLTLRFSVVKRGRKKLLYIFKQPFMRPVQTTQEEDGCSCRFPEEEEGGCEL
The description is as above. The protocol:
as §3, §4

In assay [5] the target is T5, 1554: Human CD137 with mouse domains 3B, 4A and 4B (aa 97-159) (human; mouse, UniProt P20334 96-159).
T5 construct: domain: domains 3B, 4A and 4B (aa 97-159); Human/mouse chimera transiently expressed on FreeStyle 293-F cells
T5 sequence (P20334 other isoform, or with tags, fused parts or gaps limits assumed): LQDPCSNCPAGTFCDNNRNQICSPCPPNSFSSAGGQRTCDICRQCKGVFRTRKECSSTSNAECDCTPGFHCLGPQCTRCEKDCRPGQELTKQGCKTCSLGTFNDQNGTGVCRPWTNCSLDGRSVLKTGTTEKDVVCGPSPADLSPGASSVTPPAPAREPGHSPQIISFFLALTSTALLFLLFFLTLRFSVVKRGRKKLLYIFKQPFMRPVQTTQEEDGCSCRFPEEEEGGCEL
The assay is described as above. As for the experimental part:
as §3, §4

The target in assay [6] is T6, 1553: Human CD137 with mouse domains 3A, 3B and 4A (aa 87-133) (human; mouse, UniProt P20334 86-133).
T6 construct: domain: domains 3A, 3B and 4A (aa 87-133); Human/mouse chimera transiently expressed on FreeStyle 293-F cells
T6 sequence (P20334 other isoform, or with tags, fused parts or gaps limits assumed): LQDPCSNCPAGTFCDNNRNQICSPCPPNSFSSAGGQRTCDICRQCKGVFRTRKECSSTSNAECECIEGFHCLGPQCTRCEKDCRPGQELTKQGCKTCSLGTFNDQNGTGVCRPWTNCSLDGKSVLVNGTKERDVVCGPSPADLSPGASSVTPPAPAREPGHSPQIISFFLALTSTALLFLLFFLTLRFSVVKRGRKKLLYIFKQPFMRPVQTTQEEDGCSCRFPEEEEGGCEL
Described as above. As for the experimental part:
as §3, §4

For assay [7], the target named is T7, 1550: Human CD137 with mouse domains 1, 2A and 2B (aa 24-86) (human; mouse, UniProt P20334 24-85).
T7 construct: domain: domains 1, 2A and 2B (aa 24-86); Human/mouse chimera transiently expressed on FreeStyle 293-F cells; Limits of the human pieces are worked out from the printed aa range
T7 sequence (P20334 other isoform, or with tags, fused parts or gaps limits assumed): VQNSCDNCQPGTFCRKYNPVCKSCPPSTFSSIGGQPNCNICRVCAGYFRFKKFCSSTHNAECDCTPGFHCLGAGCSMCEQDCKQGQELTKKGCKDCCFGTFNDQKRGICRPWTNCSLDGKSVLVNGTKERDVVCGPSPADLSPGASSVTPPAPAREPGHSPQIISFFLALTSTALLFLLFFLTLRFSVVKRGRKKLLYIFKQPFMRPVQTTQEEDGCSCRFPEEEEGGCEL
The description is as above. The protocol: as §3, §4

For assay [8], the target named is cynomolgus CD137 (Acro Biosystems #41B-C52H4) (cynomolgus, UniProt A9YYE7 24-186). Briefly: Octet (BLI), antibody amine-coupled to ARG2 biosensor, soluble CD137 as analyte, 1:1 model. As for the experimental part:
Materials and method CD137 affinity was determined using the Octet Red 96 platform (ForteBio). […] 7 2-fold serial dilutions of CD137 (Acro Biosystems #41B-H5227 and #41B-C52H4) from 100 nM was prepared in 1× kinetic buffer (ForteBio #18-1092). Association was measured for 180 s followed by dissociation for 180 s in 1× kinetic buffer. 10 mM Glycine pH 2.2 was used for regeneration.
Data generated was referenced by reference well subtraction (1188), the baseline was aligned with the y-axis, inter-step correlation by alignment against association was performed and the data was smoothed by a Savitzky-Golay filtering in the data analysis software (v.9.0.0.14). The processed data was fitted using a 1:1 Langmuir binding model with X² as a measurement of fitting accuracy.

For assay [9], the target named is T8, cynomolgus CD137 on transfected CHO cells (CHO-cyCD137) (cynomolgus (Macaca fascicularis); human).
T8 construct: extracellular domain;domain: transmembrane and intracellular part; also called cyno CD137
T8 sequence (P25942 other isoform, or with tags, fused parts or gaps): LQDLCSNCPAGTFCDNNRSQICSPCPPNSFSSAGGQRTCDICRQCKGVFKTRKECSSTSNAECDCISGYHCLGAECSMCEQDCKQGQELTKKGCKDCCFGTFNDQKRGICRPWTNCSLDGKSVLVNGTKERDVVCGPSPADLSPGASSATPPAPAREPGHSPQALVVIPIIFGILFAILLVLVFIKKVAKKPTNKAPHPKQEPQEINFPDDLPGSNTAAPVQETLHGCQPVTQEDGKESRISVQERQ
As to the kind of experiment: flow cytometry on CHO-cyCD137 cells; 95% confidence interval of the EC50. As for the experimental part: as §1, §2

For assay [10], the target named is T1, human CD137 on transfected CHO cells …. Briefly: flow cytometry on CHO-huCD137 cells; 95% confidence interval of the EC50. As for the experimental part:
as §1, §2
The source holds these as a separate data set. For orientation: In flow cytometry, cells or beads pass a laser one at a time.

For assay [11], the target named is T9, human FcγRIIb (R&D Systems #1460-CD-050) (human, UniProt P31994 46-217, limits assumed).
T9 construct: Soluble analyte in the Octet assay
T9 sequence (looked up): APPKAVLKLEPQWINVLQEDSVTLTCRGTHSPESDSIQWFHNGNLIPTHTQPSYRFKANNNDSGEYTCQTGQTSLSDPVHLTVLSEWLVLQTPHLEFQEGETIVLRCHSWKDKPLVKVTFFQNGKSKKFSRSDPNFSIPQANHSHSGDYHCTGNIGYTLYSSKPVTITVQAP
As to the kind of experiment: Octet (BLI), antibody captured on FAB2G tips, soluble FcγR as analyte, 1:1 model. The source says:
(§5) The processed data was fitted using a 1:1 Langmuir binding model with X² as a measurement of fitting accuracy.
Background: In BLI a coated tip is dipped into the sample, and binding shifts an interference pattern.

In assay [12] the target is T10, human FcγRIIa (R&D Systems #1330-CD-050) (human, UniProt P12318 36-218, limits assumed).
T10 construct: Soluble analyte in the Octet assay
T10 sequence (looked up): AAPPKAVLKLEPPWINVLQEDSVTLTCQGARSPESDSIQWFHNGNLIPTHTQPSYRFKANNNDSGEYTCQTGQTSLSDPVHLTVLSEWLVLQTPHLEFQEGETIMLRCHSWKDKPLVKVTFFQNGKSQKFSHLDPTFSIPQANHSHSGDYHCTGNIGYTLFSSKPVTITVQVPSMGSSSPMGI
The description is as above.
Description: as §5

Assay [13] has as its target T8, cynomolgus CD137 on transfected CHO …. Briefly: flow cytometry on CHO-cyCD137 cells; 95% confidence interval of the EC50. This is another data set of the same source.

Where two headings read alike, the source gives them in different places.

T1 sequence (P25942 other isoform, or with tags, fused parts or gaps limits assumed): as the sequence (P25942 other isoform, or with tags, fused parts or gaps) above, with L4P, S19N, K50R, I66T, S67P, Y69F, E75G, A149V counted along it
T2 sequence (P20334 other isoform, or with tags, fused parts or gaps limits assumed): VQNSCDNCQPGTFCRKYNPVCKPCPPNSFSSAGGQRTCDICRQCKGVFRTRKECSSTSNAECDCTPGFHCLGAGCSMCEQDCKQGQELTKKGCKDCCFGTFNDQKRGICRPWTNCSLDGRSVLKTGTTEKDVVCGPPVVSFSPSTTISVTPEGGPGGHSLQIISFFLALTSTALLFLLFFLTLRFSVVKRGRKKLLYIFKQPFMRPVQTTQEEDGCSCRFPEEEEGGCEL
Chain of cynomolgus CD137 (Acro Biosystems #41B-C52H4) (A9YYE7 entry or part of it): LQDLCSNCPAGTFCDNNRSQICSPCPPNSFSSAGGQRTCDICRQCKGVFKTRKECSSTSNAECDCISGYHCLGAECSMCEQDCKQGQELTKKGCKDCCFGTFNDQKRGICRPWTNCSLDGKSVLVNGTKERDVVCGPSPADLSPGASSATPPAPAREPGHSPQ
T3 sequence (P20334 other isoform, or with tags, fused parts or gaps limits assumed): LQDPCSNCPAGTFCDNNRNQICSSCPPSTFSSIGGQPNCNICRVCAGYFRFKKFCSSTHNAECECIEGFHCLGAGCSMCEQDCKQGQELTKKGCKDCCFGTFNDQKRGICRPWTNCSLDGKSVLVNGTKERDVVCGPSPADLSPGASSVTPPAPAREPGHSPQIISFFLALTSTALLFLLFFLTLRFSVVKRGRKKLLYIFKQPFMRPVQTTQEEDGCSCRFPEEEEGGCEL

B1: REF2 (antibody)
chain 1: not shown
chain 2: DIVMTQSPDSLSVSLGERATINCRASKSVDSYGNSFMHWYQQKPGQPPKLLIYLASNLESGVPDRFSGSGSGTDFTLTISSLQAEDVAVYYCQQNNEDPRTFGGGTKVEIKRTVAAPSVFIFPPSDEQLKSGTASVVCLLNNFYPREAKVQWKVDNALQSGNSQESVTEQDSKDSTYSLSSTLTLSKADYEKHKVYACEVTHQGLSSPVTKSFNRGEC
For B1, the EC50 (as a rule, the concentration giving half of the maximal effect) in [1] fell in the range of 0.16 to 0.27 nM; in assay [9], 0.41 to 0.56 nM; in assay [10], 0.21 to 0.31 µg/mL; in assay [13], 0.13 to 0.24 µg/mL. For the same molecule, the “MFI antibody/isotype control, normalized to full-length human CD137” value in assay [2] was found to be 0.26; in assay [3], 0.37; in assay [4], 0.19; in [5] it was 0.16; in assay [6], 0.17; in assay [7] it was 0.22. For the same molecule, the Kd (commonly the free concentration of one partner at which half of the binding sites on the other are occupied at equilibrium, for simple one-to-one binding) was 10 nM in assay [8], 2700 nM in assay [11] and 587 nM in assay [12].

Values taken from patent publication US20190352411A1 (ALLIGATOR BIOSCIENCE, published 2019).
